From publication PMC3005583

Target: lysozyme (Lys) (UniProt P00698 19-147)
Experiment: competition

B1: Anti-Lys aptamer / Competitor 3 probe (mixed)
DNA 1: ATCAGGGCTAAAGAGTGCAGAGTTACTTAG
DNA 2: ATCAGGGCACTCTTTAGCCCTGAT
modifications: 5' and 3' pyrene via (CH2)6 on strand 2
  binding result: binds
